The values below come from publication PMC5942583 (Nature structural & molecular biology, 2018).

The target in this assay is 15N-labeled WT 2N4R tau (microtubule-associated protein tau, longest adult isoform) (human, UniProt P10636-8 1-441, 15N-labeled). The experiment in a line: NMR titration.

B1: DnaJA2 (natural protein)
chain: not shown
Turning to B1, the binding result is given as “binds”.
